Assay results: publication PMC10681719, “An archaeal virus-encoded anti-CRISPR protein inhibits type III-B immunity by inhibiting Cas RNP complex turnover”

How the values were obtained:
[1] = target: Cmr-α ribonucleoprotein complex (RNP) (S. islandicus | S. islandicus (endogenous in the expression strain))
AcrIIIB2 [2] = target: T1, AcrIIIB2 (Sulfolobus islandicus rod-shaped virus …, UniProt A0A1B3SN31 1-149); assay: EMSA; 10 mM EDTA; no difference in affinity among RNAs; EMSA: 20 mM MES pH 6.0, 10 mM EDTA, 250 nM FAM substrate, 70 C for 5 min (10 min stated for RNP in Methods); 12% native PAGE in 0.5x TB; conditions: protein: recombinant, tags: C-terminal 6xHis (pET30a)
T1 sequence: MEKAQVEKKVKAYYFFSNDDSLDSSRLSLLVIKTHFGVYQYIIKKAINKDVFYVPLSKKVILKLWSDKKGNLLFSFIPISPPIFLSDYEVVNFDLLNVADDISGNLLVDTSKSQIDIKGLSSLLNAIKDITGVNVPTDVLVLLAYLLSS

AcrIIIB2 [3] = target: T1, AcrIIIB2; assay: EMSA; 250 nM RNA, 0-15 uM protein, 10 mM EDTA, 70 C; also binds at lower temperature; EMSA: 20 mM MES pH 6.0, 10 mM EDTA, 250 nM FAM substrate, 70 C for 5 min (10 min stated for RNP in Methods); 12% native PAGE in 0.5x TB; conditions: protein: recombinant; tags: C-terminal 6xHis (pET30a); label: 5'-FAM

## His-tagged AcrIIIB2 (natural protein)
[1]
  cis RNase activity of Cmr-α RNP (100 nM) on 250 nM labeled target RNA: uncleaved target RNA, AcrIIIB2 to Cmr-α RNP molar ratios 0 to 30: 80%
  trans ssDNase activity of Cmr-α RNP (100 nM) with 300 nM target RNA and 300 nM labeled ssDNA: uncleaved ssDNA, AcrIIIB2 to Cmr-α RNP molar ratios 0 to 30: 15%

B1: RNA2 (ssRNA)
RNA: CCAAGCUAAUCUACUAUAGAAUUGAAAGCU
AcrIIIB2 [2]; label: 5'-FAM
  binding result: binds

B2: RNA3 (ssRNA)
RNA: UCAAAGCUUAGAUACCCUGGA
AcrIIIB2 [2]; label: 5'-FAM
  binding result: binds

B3: RNA4 (ssRNA)
RNA: GUGACAGCAUCUCAUACUAGACAG
AcrIIIB2 [2]; label: 3'-FAM
  binding result: binds

B4: RNA1 (target RNA, 43 nt) (ssRNA)
RNA: AGUCUCGUAACCAGUCCAAGAACAGAAACCAGUCAAAUGACCG
AcrIIIB2 [3]
  binding result: binds
